Laboratory results published in patent publication US20210338848A1, “COMPOSITIONS AND METHODS FOR DIAGNOSING AND TREATING MACROPHAGE-RELATED DISORDERS USING CARBOHYDRATE-BASED MACR[…]” (Cardinal Health 414, LLC, priority 2016, published 2021).

What was measured:
mannose receptor CD206 = mannose receptor CD206 (Homo sapiens, UniProt P22897); details: when administered to mammals; no other receptors bind or transduce
Text: CD206 is a C-type […] binding protein found on the surface of macrophages.

[1] = used to stage breast cancer and melanoma; cited from earlier work

Sequence of mannose receptor CD206 (P22897 19-1456): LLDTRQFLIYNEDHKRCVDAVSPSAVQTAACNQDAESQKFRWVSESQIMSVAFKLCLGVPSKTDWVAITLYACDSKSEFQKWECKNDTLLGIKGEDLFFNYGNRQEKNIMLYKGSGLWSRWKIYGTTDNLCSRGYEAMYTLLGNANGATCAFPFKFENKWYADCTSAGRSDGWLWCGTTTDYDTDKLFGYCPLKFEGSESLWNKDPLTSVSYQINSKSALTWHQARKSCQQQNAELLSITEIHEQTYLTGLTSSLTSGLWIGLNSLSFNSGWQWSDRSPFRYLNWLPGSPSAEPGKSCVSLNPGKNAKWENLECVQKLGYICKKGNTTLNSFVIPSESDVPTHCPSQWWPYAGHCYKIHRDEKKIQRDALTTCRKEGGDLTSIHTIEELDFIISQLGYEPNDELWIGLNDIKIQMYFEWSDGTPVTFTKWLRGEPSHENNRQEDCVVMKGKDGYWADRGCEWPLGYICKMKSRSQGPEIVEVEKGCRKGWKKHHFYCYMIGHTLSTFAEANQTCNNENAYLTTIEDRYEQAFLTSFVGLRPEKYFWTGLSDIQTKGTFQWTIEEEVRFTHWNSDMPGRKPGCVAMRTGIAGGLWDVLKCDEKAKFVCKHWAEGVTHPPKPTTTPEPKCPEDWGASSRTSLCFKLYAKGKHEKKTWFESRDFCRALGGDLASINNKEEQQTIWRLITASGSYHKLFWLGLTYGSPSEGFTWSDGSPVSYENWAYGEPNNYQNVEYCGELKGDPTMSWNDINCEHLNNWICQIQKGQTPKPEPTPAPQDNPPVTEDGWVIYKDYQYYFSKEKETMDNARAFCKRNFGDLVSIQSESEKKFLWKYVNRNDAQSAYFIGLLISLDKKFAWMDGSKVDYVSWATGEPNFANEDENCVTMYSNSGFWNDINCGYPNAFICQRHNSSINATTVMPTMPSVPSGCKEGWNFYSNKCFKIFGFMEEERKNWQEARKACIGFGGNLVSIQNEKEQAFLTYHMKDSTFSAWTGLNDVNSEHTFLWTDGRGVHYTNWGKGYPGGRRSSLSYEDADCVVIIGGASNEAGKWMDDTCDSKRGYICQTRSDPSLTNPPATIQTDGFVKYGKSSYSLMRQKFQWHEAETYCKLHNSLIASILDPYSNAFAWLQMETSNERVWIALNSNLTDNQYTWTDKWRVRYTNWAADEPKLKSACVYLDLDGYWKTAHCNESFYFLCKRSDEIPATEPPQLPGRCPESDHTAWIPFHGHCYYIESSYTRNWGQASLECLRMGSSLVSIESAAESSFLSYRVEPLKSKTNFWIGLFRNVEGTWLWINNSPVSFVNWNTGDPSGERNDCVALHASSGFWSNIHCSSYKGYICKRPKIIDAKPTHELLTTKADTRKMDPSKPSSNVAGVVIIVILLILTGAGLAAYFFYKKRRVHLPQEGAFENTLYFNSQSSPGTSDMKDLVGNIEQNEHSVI

Substance	receptor binding specificity (mannose receptor CD206)	clearance from injection site [1]	uptake by distal or second-echelon lymph nodes [1]	uptake by sentinel lymph node(s) [1]
dextran 3-[(2-aminoethyl)thio]propyl 17-carboxy-10,13,16-tris(carboxymethyl)-8-oxo-4-thia-7,10,13,16-tetraazaheptadec-1-yl 3-[[2-[[1-imino-2-(D-mannopyranosylthio) ethyl]amino]ethyl]thio]propyl ether complexes [tilmanocept]	bind exclusively to the mannose receptor CD206			
technetium Tc 99m, dextran 3-[(2-aminoethyl)thio]propyl 17-carboxy-10,13,16-tris(carboxymethyl)-8-oxo-4-thia-7,10,13,16-tetraazaheptadec-1-yl 3-[[2-[[1-imino-2-(D-mannopyranosylthio) ethyl]amino]ethyl]thio]propyl ether complexes [technetium Tc 99m labeled tilmanocept]		rapid clearance from an injection site	low uptake by distal or second-echelon lymph nodes	rapid and sustained uptake by the sentinel lymph node(s)
